According to patent US20180237508A1:

Assays:
[1] = target: Human cytokeratin-8 (CK8) at the cell surface of human cancer cell lines (human) (UniProt P05787); assay: flow cytometry, HT29 cells, MAb 5 ug/mL
[2] = target: Human cytokeratin-8 (CK8) at the cell surface of human cancer cell lines (human) (UniProt P05787); assay: flow cytometry, MCF-7 cells, MAb 5 ug/mL
[3] = target: Human cytokeratin-8 (CK8) at the cell surface of human cancer cell lines (human) (UniProt P05787); assay: flow cytometry, HCT116 +/+ cells, MAb 5 ug/mL
[4] = target: Human cytokeratin-8 (CK8) at the cell surface of human cancer cell lines (human) (UniProt P05787); assay: flow cytometry, ISRECO-1 cells, MAb 5 ug/mL
[5] = target: Human cytokeratin-8 (CK8) at the cell surface of human cancer cell lines (human) (UniProt P05787); assay: flow cytometry, HCT116-/- cells, MAb 5 ug/mL
[6] = target: Human cytokeratin-8 (CK8) at the cell surface of human cancer cell lines (human) (UniProt P05787); assay: flow cytometry, ISRECO-2 cells, MAb 5 ug/mL
[7] = target: Human cytokeratin-8 (CK8) at the cell surface of human cancer cell lines (human) (UniProt P05787); assay: flow cytometry, ISRECO-3 cells, MAb 5 ug/mL

Sequence of Human cytokeratin-8 (CK8) at the cell surface of human cancer cell lines (human) (P05787 whole entry): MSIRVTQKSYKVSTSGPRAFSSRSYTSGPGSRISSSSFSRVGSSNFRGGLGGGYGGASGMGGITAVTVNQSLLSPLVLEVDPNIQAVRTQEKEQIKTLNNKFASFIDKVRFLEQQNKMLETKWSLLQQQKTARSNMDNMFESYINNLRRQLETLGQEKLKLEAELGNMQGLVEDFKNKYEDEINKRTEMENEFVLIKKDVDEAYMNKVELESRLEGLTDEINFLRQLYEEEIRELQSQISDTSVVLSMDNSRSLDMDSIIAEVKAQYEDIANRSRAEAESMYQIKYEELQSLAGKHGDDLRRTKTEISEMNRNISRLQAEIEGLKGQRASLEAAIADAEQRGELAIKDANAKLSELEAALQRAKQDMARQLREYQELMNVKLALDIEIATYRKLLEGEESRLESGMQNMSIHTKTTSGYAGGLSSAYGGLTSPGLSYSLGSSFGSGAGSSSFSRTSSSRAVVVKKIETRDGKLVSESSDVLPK

1E8 antibody (commercially available antibody ab28050, abcam)
% (labelled cells) [1]: 30% | IFM [1]: 418 | % (labelled cells) [2]: 52% | IFM [2]: 462 | % (labelled cells) [3]: 35% | IFM [3]: 554 | % (labelled cells) [4]: 45% | IFM [4]: 562 | % (labelled cells) [5]: 38% | IFM [5]: 530 | % (labelled cells) [6]: 23% | IFM [6]: 424 | % (labelled cells) [7]: 41% | IFM [7]: 402

M20 antibody (commercially available antibody C5301, Sigma)
% (labelled cells) [1]: 17% | IFM [1]: 497 | % (labelled cells) [2]: 66% | IFM [2]: 476 | % (labelled cells) [3]: 29% | IFM [3]: 527 | % (labelled cells) [4]: 50% | IFM [4]: 553 | % (labelled cells) [5]: 28% | IFM [5]: 517 | % (labelled cells) [6]: 26% | IFM [6]: 473 | % (labelled cells) [7]: 33% | IFM [7]: 541
